Laboratory results taken from patent US11549124B2 (priority 2017, dated 2023).

How the values were obtained:
[1] = system: wheat TaPAPhy phytase (EC 3.1.3.26); assay: Residual phytase activity after treatment with protease at different phytase:protease ratios; settings: phytase: protease ratio of 1:20
Source text: Values are mean of 3 independent technical replicates, and error bars represent means+±sd of replicates.

[2] = system: phytases in crude extract from F. graminearum 7775; assay type: biochemical
[3] = system: phytases in crude extract from F. culmorum 8984; assay type: biochemical
[4] = target: Aspergillus ficuum phytase (Aspergillus niger, UniProt P34752)
Aspergillus ficuum phytase, sequence (P34752 24-467): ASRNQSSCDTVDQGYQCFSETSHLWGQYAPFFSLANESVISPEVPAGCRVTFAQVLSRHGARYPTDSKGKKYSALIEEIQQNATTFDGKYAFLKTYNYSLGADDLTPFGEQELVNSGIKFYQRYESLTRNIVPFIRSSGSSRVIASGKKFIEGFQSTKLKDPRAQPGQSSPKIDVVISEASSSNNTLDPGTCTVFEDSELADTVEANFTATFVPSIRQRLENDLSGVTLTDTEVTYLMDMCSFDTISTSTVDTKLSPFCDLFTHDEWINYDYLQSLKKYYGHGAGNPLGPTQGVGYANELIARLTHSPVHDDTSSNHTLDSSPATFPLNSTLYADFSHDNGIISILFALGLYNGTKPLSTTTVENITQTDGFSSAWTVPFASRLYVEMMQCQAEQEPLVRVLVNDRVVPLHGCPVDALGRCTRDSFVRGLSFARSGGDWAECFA

[5] = system: TRI4, TRI5, TRI6 genes of F. graminearum JCM9873; assay type: cell-based
F. graminearum JCM9873 = assay type: cell-based

Molecule	phytase activity after exposure to protease [1]	inhibition of phytases in crude extract [2]	inhibition of phytases in crude extract [3]	pH of peak activity for inhibiting A. ficuum phytase ([4]; 5 μg HvNEP-1, 2.5 U/ml phytase, 2 mM sodium phytate, 1 h, 37° C., pH 2.0 to 8.0)	temperature of peak activity for inhibiting A. ficuum phytase ([4]; 100 mM acetate buffer pH 5.0, 1 h) [°C]	expression of TRI4 gene [5]	expression of TRI5 gene [5]	expression of TRI6 gene [5]	15-ADON production by F. graminearum (F. graminearum JCM9873)	growth (biomass accumulation) of fungal culture (F. graminearum JCM9873)	toxin production of fungal culture (F. graminearum JCM9873)
pepsin	unaffected	–	–	–	–	–	–	–	–	–	–
HvNEP-1 (protein, Hordeum vulgare) MAMAIMNTLQCILFLMALIMTHQIPRATADADTPKVAMASSGAGSSFRLAAHHDHALSRSDDGFLHVQSRLDNLLPSEANVTTLRPPVASPLDMAFSVVVGLGSGKGRHDYNLKLDASGSLTWVQCKPCNPKQPQRGPLFDPKASSTFQQVAGTSQICHPPYPMEPAGQQCAFHLSGMGGMSVHGYVAMENLTMGPEAMKEFVFGCSHSTGHFNSHGTFAGVAAMGKMPTSLVMQVAARGQTRFSYCLFSGGASRHGFLRFGADVPSRSGLRTTKILPALDAHESQYYVSLVGISLDAKRLTGVRPEMFARQRGGEGGCVVDPGTPLTVLVREAYRVVEDAVWSDLRRNKAERVQREGYGLCVRKTAEIKRHLQSLSLHFAEETARLVVKPEQLFVAVESRLHGAALCLAMRPGERTVIGALQQVDTRFVYDLKDAKLSFASEPCSQDTAGVD	–	strongly inhibited	strongly inhibited	5.0	40	suppressed	suppressed	suppressed	not detectable	strongly inhibited	strongly inhibited
